Measurements published in article PMC12002259, “Monomers and short oligomers of human RAD52 promote single-strand annealing” (Proceedings of the National Academy of Sciences of the …, 2023).
“And” between values parts separate entries of the source, which are not always exact repeats. Equal entries are not always repeated.

What was measured:
RAD52(209) [1] = biological target: T1, RAD52(209) (human, UniProt P43351 1-209); assay: mass photometry; 100 nM protein, 10 nM DNA; ring shift 40 ± 4 kDa; EMSA: 25 mM Tris-acetate, 2 mM Mg(OAc)2, 1 mM DTT, pH 7.5, 10 nM ssDNA, 25 C 10 min or 37 C 5 min; mass photometry: 20 mM Tris-HCl, 50 mM NaCl, pH 7.5; conditions: protein: recombinant; tags: His-tag (pET-15b); chain copies: 11
T1 sequence: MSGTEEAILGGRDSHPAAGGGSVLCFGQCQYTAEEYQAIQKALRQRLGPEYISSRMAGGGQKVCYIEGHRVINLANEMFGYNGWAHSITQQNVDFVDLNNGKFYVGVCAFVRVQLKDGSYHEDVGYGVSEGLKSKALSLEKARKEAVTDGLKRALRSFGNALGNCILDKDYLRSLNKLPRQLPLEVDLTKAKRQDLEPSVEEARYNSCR

RAD52 full length [2] = biological target: T2, RAD52 full length (human, UniProt P43351 1-418); assay: EMSA; 37 C; Hill 2.7 ± 0.2; EMSA: 25 mM Tris-acetate, 2 mM Mg(OAc)2, 1 mM DTT, pH 7.5, 10 nM ssDNA, 25 C 10 min or 37 C 5 min; mass photometry: 20 mM Tris-HCl, 50 mM NaCl, pH 7.5; conditions: protein: recombinant; tags: His-tag (pET-15b)
T2 sequence: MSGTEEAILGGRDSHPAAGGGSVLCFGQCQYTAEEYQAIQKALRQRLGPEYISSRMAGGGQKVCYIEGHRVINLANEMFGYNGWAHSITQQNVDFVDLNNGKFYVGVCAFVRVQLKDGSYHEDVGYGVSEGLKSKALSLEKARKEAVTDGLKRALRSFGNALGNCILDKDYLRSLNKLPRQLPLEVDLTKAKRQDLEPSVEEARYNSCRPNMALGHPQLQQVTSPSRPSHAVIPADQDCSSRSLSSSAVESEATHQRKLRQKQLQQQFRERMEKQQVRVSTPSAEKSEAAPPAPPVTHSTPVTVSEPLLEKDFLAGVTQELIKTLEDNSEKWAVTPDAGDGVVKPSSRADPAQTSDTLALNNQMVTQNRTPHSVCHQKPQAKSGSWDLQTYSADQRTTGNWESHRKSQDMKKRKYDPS

RAD52(209) [3] = biological target: T1, RAD52(209); assay: EMSA; 37 C; Hill 3.1 ± 0.5; EMSA: 25 mM Tris-acetate, 2 mM Mg(OAc)2, 1 mM DTT, pH 7.5, 10 nM ssDNA, 25 C 10 min or 37 C 5 min; mass photometry: 20 mM Tris-HCl, 50 mM NaCl, pH 7.5; conditions: protein: recombinant; tags: His-tag (pET-15b); chain copies: 11
RAD52(209) [4] = biological target: T1, RAD52(209); assay: EMSA; 25 C; Hill 1.5 ± 0.2; EMSA: 25 mM Tris-acetate, 2 mM Mg(OAc)2, 1 mM DTT, pH 7.5, 10 nM ssDNA, 25 C 10 min or 37 C 5 min; mass photometry: 20 mM Tris-HCl, 50 mM NaCl, pH 7.5; conditions: protein: recombinant; tags: His-tag (pET-15b); chain copies: 11
RAD52 full length [5] = biological target: T2, RAD52 full length; assay: EMSA; 25 C; Hill 1.4 ± 0.2; EMSA: 25 mM Tris-acetate, 2 mM Mg(OAc)2, 1 mM DTT, pH 7.5, 10 nM ssDNA, 25 C 10 min or 37 C 5 min; mass photometry: 20 mM Tris-HCl, 50 mM NaCl, pH 7.5; conditions: protein: recombinant; tags: His-tag (pET-15b)
[6] = biological target: the molecule itself; assay: mass photometry; single 60-s reading at 200 nM protein, label-free, adsorbed on glass; Buffer 1 (20 mM Tris-HCl, 50 mM NaCl, pH 7.5); stock diluted to 1 uM, then to the final concentration, measured directly after dilution; size of the oligomers
RAD52(209) [7] = biological target: T1, RAD52(209); assay: mass photometry; 100 nM protein, 10 nM DNA; ring shift 32 ± 2 kDa; EMSA: 25 mM Tris-acetate, 2 mM Mg(OAc)2, 1 mM DTT, pH 7.5, 10 nM ssDNA, 25 C 10 min or 37 C 5 min; mass photometry: 20 mM Tris-HCl, 50 mM NaCl, pH 7.5; conditions: protein: recombinant; tags: His-tag (pET-15b); chain copies: 11
[8] = biological target: the molecule itself; assay: mass photometry; concentration series 10 to 200 nM protein, cumulative histograms from four measurements; Buffer 1 (20 mM Tris-HCl, 50 mM NaCl, pH 7.5); linear fits and a global fit of noncooperative (isodesmic) assembly coupled with preferential cyclization; Kd is that of a monomer associating with an oligomer of n subunits
RAD52 full length [9] = biological target: T2, RAD52 full length; assay: EMSA; 37 C; Hill 3.3 ± 0.2; EMSA: 25 mM Tris-acetate, 2 mM Mg(OAc)2, 1 mM DTT, pH 7.5, 10 nM ssDNA, 25 C 10 min or 37 C 5 min; mass photometry: 20 mM Tris-HCl, 50 mM NaCl, pH 7.5; conditions: protein: recombinant; tags: His-tag (pET-15b)
RAD52(209) [10] = biological target: T1, RAD52(209); assay: EMSA; 37 C; Hill 4.1 ± 0.4; EMSA: 25 mM Tris-acetate, 2 mM Mg(OAc)2, 1 mM DTT, pH 7.5, 10 nM ssDNA, 25 C 10 min or 37 C 5 min; mass photometry: 20 mM Tris-HCl, 50 mM NaCl, pH 7.5; conditions: protein: recombinant; tags: His-tag (pET-15b); chain copies: 11
RAD52(209) [11] = biological target: T1, RAD52(209); assay: EMSA; 25 C; Hill 1.6 ± 0.3; EMSA: 25 mM Tris-acetate, 2 mM Mg(OAc)2, 1 mM DTT, pH 7.5, 10 nM ssDNA, 25 C 10 min or 37 C 5 min; mass photometry: 20 mM Tris-HCl, 50 mM NaCl, pH 7.5; conditions: protein: recombinant; tags: His-tag (pET-15b); chain copies: 11
RAD52 full length [12] = biological target: T2, RAD52 full length; assay: EMSA; 25 C; Hill fixed at 1; EMSA: 25 mM Tris-acetate, 2 mM Mg(OAc)2, 1 mM DTT, pH 7.5, 10 nM ssDNA, 25 C 10 min or 37 C 5 min; mass photometry: 20 mM Tris-HCl, 50 mM NaCl, pH 7.5; conditions: protein: recombinant; tags: His-tag (pET-15b)

B1: 83 nt (ssDNA)
DNA: TTTATATAATTTACTTTATTTTCTATGTCTATTCATTTACTTATTGTGTATTATCCTTATACTTACTTACTTTATGTTTATTT
binding result (RAD52(209) [1]): binds

GCTCTAAGCCATCCGCAAAAATGACCTCTTAT (ssDNA) [32 nt]
Kd (RAD52 full length [2]): 135 ± 4 nM
Kd (RAD52(209) [3]): 246 ± 33 nM
Kd (RAD52(209) [4]): 169 ± 24 nM
Kd (RAD52 full length [5]): 115 ± 22 nM

B2: RAD52(209), human RAD52 truncated after amino acid 209 (domain or fragment, UniProt P43351 1-209, looked up)
chain: T1 sequence
notes: Expressed from pET-15b (plasmid a gift of S. C. West); No tag cleavage is described; The entry describes the protomer; also called C-terminally truncated RAD52; source: E. coli BL21(DE3) with pRARE, purified (Ni-NTA, size-exclusion chromatography)
stoichiometry N [6]: 11

GCAATTAAGCTCTAAGCCATCCGCAAAAATGACCTCTTATCAAAAGGA (ssDNA) [48 nt unlabeled]
binding result (RAD52(209) [7]): binds

B3: full-length human RAD52 (natural protein, UniProt P43351 1-418, looked up)
chain: T2 sequence
notes: RAD52, human, full length; Expressed from pET-15b (plasmid a gift of W. Kagawa); No tag cleavage is described; The entry describes the protomer; the oligomer size varies with concentration; source: E. coli BL21(DE3) with pRARE, purified (Ni-NTA, size-exclusion chromatography)
stoichiometry N [6]: 8 protomers to 12 protomers (2×) and 10
Kd [8]: 14 ± 2 nM
stoichiometry N [8]: 10.6 protomers per ring and 7 protomers to 13 protomers (2×)

B4: 60 nt (ssDNA)
DNA: TCCTTTTGATAAGAGGTCATTTTTGCGGATGGCTTAGAGCTTAATTGCTTTTTTTTTTTT
Kd (RAD52 full length [9]): 112.4 ± 0.1 nM
Kd (RAD52(209) [10]): 127 ± 10 nM

B5: 70 nt (ssDNA)
DNA: TTTAATAATTTACTTTATTTTCTATGTCTATTCATTTACTTATTGTGTATTATCCTTATACTTACTTAC
Kd (RAD52(209) [11]): 109 ± 23 nM
Kd (RAD52 full length [12]): 53 ± 8 nM
